The record followed here is patent publication US20070071750A1 (UNIVERSIDAD NACIONAL AUT NOMA DE M XICO UNAM, published 2007).

For test [1], the target named is T1, toxin Cll1 from Centruroides limpidus limpidus (Centruroides limpidus limpidus, UniProt P45667 1-66).
T1 sequence: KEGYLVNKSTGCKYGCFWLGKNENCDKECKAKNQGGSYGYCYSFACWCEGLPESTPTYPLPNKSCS
Description: phage ELISA, Cll1 coated at 3 µg/ml, anti-M13-HRP, Abs. 492 nm. On the technique in general: ELISA stands for enzyme-linked immunosorbent assay.

For test [2], the target named is toxin Cll2 from Centruroides limpidus limpidus (Centruroides limpidus limpidus, UniProt P59898 1-66). Description: phage ELISA, Cll2 coated at 3 µg/ml, anti-M13-HRP, Abs. 492 nm.
Test [3] has as its target T2, BSA (Bos taurus, UniProt P02769).
T2 construct: also called bovine serum albumin
Briefly: phage ELISA, BSA coated, anti-M13-HRP, Abs. 492 nm.

The target of test [4] is T3, toxin Cn2 from Centruroides noxius Hoffmann scorpion venom (Centruroides noxius Hoffmann, UniProt P01495 17-82).
T3 construct: mature; also called Cn2 toxin; formerly 11-9.2.2
Briefly: SPR (Biacore), Cn2 immobilised, soluble scFv injected. Background: Surface plasmon resonance follows binding to a sensor surface in real time, without labels.

B1: scFv 3F (scFv)
scFv: EVQLVESGGGLVQPGGSLRLSCAGSGFTFDNYAMHWIRQVPGEGLEWVSGISRSSGDIGYADSVKGRFTISRDNAKKSLSLQMNSLRAEDTAVYYCARGGVGSFDTWGQGTMVTVSSGGGGSGGGGSGGGGSEIVLTQSPATLSVSPGERATLSCRASQSVRSYLAWYQQKPGQAPRLLISDASNRATGIPARFTGSGSGTDFTLTISSLEPEDFAIYYCQQYRYSPRTFGQGTKVEIKR
notes: also called clone 3F; phage-antibody 3F
On to B1, for which the binding result in test [1], in test [2] and in test [3] was “no binding (tested: 1x10^11 phages/ml)” throughout.

B2: scFv C1 (scFv)
scFv: QVNLRESGGGLVQPGGSLRLSCAASGFSFGSYGMHWVRQAPGKGLEWVAVISYDGSNKYYADSVKGRFTISRDNSKNTLYLQMNSLRAEDTAVYYCAKDARDCLMCADWYFDLWGRGTLVTVSSGGGGSGGGGSGGGGSNFMLTQPHSASGTPGQRVTISCSGSSSNIGSNTVNWYRHLPGSAPELLIGSHNQRPSGVPDRFSASKSDTSASLAISGLQSEDEADYYCAAWDDSLIGYVFGTGTKLTVLG
notes: also called clone C1; phage-antibody C1
Consider B2, for which the affinity in test [4], expressed as Kd, was 540 nM. Also, the koff – broadly, a measure of how fast the partners let go of each other – in test [4] stood at 0.014 s⁻¹. Further, the kon (as a rule, a measure of how fast the partners come together) in test [4] turned out to be 20000 M⁻¹ s⁻¹. Moreover, the binding result in test [1], in test [2] and in test [3] was “no binding (tested: 1x10^11 phages/ml)” throughout.
